{"source": "patent US8445006B2", "about": "“Biomolecular coating for implants” (Georgia Tech Research Corporation, priority 2006, dated 2013)", "key": {"α5β1 integrin": {"target": "T1, α5β1 integrin (Mus musculus, UniProt P09055+P11688)", "T1 construct": "endogenous in cells; host or cells: MC3T3-E1 murine osteoblast-like cells", "T1 sequence (P11688 45-898 limits assumed)": "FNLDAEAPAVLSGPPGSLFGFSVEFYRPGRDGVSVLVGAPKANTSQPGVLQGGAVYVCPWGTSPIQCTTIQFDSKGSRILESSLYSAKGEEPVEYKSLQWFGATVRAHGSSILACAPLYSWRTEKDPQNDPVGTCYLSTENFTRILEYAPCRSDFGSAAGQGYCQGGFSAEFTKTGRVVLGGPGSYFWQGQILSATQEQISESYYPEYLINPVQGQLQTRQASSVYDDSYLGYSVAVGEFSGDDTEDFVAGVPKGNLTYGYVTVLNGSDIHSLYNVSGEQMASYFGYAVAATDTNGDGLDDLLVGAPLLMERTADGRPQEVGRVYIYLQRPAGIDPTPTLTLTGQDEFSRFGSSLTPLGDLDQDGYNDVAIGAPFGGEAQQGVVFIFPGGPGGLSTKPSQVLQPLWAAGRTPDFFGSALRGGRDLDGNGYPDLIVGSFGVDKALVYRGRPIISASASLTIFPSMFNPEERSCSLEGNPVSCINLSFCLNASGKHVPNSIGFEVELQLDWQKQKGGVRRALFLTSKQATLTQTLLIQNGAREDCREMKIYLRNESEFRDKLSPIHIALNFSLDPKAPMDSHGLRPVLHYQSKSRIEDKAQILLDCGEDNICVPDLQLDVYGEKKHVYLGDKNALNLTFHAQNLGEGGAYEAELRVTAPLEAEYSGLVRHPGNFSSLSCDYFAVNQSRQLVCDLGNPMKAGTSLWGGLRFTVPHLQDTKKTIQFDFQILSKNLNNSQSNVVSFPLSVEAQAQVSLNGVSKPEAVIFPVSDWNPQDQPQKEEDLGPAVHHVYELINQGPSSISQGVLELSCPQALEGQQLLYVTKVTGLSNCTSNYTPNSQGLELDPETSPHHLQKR", "T1 sequence (P11688 899-1053 limits assumed)": "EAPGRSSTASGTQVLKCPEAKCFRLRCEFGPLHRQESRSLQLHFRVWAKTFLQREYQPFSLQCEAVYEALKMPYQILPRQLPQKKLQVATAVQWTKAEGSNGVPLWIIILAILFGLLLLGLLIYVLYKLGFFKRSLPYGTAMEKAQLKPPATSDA", "T1 sequence (P09055 21-798)": "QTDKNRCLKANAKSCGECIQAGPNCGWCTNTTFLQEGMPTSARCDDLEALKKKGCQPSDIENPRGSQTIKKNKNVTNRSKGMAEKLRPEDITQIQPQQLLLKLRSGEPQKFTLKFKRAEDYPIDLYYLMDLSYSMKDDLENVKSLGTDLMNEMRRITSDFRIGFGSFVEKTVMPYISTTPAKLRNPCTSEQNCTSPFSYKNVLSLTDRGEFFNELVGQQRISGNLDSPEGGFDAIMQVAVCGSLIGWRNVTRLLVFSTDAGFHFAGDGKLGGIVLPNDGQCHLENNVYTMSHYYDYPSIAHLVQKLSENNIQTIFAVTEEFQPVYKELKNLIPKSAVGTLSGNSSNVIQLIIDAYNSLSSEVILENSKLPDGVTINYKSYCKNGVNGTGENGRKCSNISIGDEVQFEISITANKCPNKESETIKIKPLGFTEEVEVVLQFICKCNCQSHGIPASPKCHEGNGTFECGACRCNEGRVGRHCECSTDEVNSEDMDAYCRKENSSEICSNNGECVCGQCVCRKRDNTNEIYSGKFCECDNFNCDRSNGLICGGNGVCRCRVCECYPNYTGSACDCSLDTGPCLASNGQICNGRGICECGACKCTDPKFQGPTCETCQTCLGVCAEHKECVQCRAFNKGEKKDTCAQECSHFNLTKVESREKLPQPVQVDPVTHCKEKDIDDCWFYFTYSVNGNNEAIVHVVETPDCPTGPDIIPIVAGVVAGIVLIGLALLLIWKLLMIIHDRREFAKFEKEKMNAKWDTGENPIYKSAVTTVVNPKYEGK", "assay": "Crosslinking/extraction immunostaining of bound integrin", "assay_type": "cell-based, murine", "conditions": "4 h on saturated ligand-functionalized SAMs", "procedure": "(§1) Surfaces were prepared on either 6-well plate lids or 35 mm tissue culture dishes, and cells seeded at 75 cells/mm^2 in serum-containing media for 4 h at 37° C. For integrin staining, a cross-linking/extraction biochemical method that selectively isolates bound integrins was employed. Cells were washed, and 1.0 mM DTSSP (Pierce) was added for 15 min to cross-link ligated integrins. After quenching with 50 mM Tris, uncrosslinked cellular components were extracted in 0.1% SDS supplemented with protease inhibitors (350 μg/ml PMSF). Samples were then blocked in 5% FBS for 1 h and incubated with integrin-specific antibodies for 1 h at 37° C. Fluorochrome-labeled secondary antibodies were then incubated for 1 h at 37° C. Following washing, samples were mounted on slides with Gel/Mount mounting media (Biomeda, Foster City, Calif.). For staining of focal adhesions, cells were extracted in 0.5% Triton X-100 in ice-cold cytoskeleton buffer (50 mM NaCl, 3 mM MgCl2, 150 mM sucrose, 20 μg/ml aprotonin, 1 μg/ml leupeptin, 1 mM PMSF, 50 mM Tris, pH 6.8) for 2 min and fixed in cold 3.7% formaldehyde in DPBS for 5 min. Cultures were blocked, subsequently incubated in anti-vinculin monoclonal antibody (1:70 in 5% FBS) and fluorochrome-labeled secondary antibodies for 1 h, and samples mounted on slides.\n(§2) Since MC3T3-E1 cells assemble robust focal adhesions containing clustered integrins and intracellular structural and signaling proteins, integrin binding and focal adhesion assembly on the engineered interfaces was examined by staining for different integrin subunits and vinculin, which localizes to focal adhesions. MC3T3-E1 cells were allowed to adhere on each saturated ligand-functionalized support for 4 h and integrin binding was evaluated via a crosslinking/extraction and immunostaining protocol, which isolates integrins ligated to the ligand. […] The crosslinking and extraction technique relies in coupling free amines on both the receptor and ligand. Since the tethered RGD has no free amine, the αvβ3 staining in the RGD surfaces is attributed to focal adhesions that were not completely extracted. […] Both surfaces assembled focal adhesions containing vinculin."}, "αvβ3 integrin": {"target": "T2, αvβ3 integrin (Mus musculus, UniProt O54890+P43406)", "T2 construct": "endogenous in cells; host or cells: MC3T3-E1 murine osteoblast-like cells", "T2 sequence (P43406 31-885 limits assumed)": "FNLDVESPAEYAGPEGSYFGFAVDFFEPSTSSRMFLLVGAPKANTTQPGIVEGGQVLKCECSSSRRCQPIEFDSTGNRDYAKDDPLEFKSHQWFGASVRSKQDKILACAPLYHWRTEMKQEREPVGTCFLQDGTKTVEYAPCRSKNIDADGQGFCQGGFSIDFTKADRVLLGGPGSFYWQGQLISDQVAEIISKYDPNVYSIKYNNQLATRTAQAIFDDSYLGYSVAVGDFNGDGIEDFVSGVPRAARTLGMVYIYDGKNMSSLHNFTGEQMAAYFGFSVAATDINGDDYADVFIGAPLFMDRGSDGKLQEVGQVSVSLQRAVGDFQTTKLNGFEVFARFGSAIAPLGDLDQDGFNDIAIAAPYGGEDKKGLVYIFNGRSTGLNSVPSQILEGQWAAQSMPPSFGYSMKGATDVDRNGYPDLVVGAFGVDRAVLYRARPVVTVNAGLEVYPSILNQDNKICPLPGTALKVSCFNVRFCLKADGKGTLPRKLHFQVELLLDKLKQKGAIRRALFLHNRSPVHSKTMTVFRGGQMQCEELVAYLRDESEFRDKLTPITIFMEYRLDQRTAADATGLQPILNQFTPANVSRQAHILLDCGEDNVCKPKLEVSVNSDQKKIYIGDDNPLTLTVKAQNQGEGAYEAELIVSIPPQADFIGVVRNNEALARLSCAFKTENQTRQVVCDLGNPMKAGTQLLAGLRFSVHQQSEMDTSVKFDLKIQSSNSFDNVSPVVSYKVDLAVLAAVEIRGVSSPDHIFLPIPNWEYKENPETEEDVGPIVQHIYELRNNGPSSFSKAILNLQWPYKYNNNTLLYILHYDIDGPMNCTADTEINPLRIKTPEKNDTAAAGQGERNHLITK", "T2 sequence (P43406 887-1044 limits assumed)": "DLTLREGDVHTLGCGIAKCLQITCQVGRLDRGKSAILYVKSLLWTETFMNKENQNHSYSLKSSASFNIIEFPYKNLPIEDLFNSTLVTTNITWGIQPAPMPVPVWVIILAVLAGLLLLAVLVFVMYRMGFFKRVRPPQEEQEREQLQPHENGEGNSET", "T2 sequence (O54890 26-787)": "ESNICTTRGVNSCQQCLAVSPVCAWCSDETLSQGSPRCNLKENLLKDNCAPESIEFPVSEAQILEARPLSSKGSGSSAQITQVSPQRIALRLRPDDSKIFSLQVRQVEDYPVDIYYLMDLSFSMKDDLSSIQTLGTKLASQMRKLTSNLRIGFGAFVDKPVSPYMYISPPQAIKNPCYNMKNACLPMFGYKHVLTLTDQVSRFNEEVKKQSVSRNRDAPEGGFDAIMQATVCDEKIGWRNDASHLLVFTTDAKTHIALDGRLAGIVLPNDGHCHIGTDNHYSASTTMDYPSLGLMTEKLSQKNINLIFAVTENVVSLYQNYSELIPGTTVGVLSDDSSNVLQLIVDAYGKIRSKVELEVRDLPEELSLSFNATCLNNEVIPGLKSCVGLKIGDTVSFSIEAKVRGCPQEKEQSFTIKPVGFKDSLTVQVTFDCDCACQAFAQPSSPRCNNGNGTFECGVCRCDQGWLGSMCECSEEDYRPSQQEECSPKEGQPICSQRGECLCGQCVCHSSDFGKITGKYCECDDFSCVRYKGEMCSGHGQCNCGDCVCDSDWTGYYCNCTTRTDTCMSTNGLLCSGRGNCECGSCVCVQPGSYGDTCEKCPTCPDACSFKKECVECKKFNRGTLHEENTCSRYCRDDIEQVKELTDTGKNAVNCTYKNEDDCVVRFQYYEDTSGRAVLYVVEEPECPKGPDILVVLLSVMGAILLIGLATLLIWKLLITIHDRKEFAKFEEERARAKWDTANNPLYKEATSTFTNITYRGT", "assay": "Crosslinking/extraction immunostaining of bound integrin", "assay_type": "cell-based, murine", "conditions": "4 h on saturated ligand-functionalized SAMs", "procedure": "as §1, §2"}}}
{"substance": "FNIII7-10: monobiotinylated recombinant fibronectin fragment spanning the 7-10th type III repeats of fibronectin; α5β1 integrin ligand", "values": [{"measurement": "bound α5β1 integrin staining", "setting": "α5β1 integrin", "value": "robust, well-defined adhesive structures containing α5β1 integrins"}, {"measurement": "bound αvβ3 integrin staining", "setting": "αvβ3 integrin", "value": "minimal αvβ3 binding"}]}
{"substance": "GRGDSPC [RGD peptide, linear RGD oligopeptide purchased from BACHEM; primarily supports αvβ3-mediated adhesion, reference compound]", "values": [{"measurement": "bound α5β1 integrin staining", "setting": "α5β1 integrin", "value": "little staining for α5β1"}, {"measurement": "bound αvβ3 integrin staining", "setting": "αvβ3 integrin", "value": "clustering of αvβ3"}]}
